Assay results as given in patent publication US20160237160A1, “ANTI-TWEAKR ANTIBODIES AND USES THEREOF” (BAYER PHARMA AKTIENGESELLSCHAFT, priority 2013, published 2016).
Marks after values point to notes of the source that are not given here.

Columns and labels:
NCI-H322 cells = assay: Caspase 3/7 activation; type: cell-based, human; settings: 100 μg/ml antibody or *100 ng/ml TWEAK, 48 h, IFN gamma
Protocol: (§1) To determine the level of apoptosis induction, Caspase-3/7 activation was measured after treatment of cancer cells with TWEAK or agonistic anti-TWEAKR antibodies. Therefore HT-29 cells were plated at a density of 4000 cells/75 μl/well in 96 well plates in assay medium (DMEM/Ham's F12, Biochrom #FG4815+10% FCS+100 ng/ml IFN gamma (R&D Systems #285-IF)). 24 h later cells were incubated with antibodies to the TWEAKR (see Table 24), recombinant human TWEAK (R&D, #1090-TW-025/CF, E. coli derived recombinant soluble human TWEAK, Arg93-His249 of accession # Q4ACW9, Entrez Gene ID 8742, with an N-terminal Met and 6-His tag) or corresponding isotype control IgG at various concentrations as indicated. After 24 h incubation with the antibodies, Caspase 3/7 activity was determined by adding 100 μl/well Caspase 3/7 Solution (Promega, #G8093) to the cells, incubation for one hour and reading of luminescence on a VICTOR V (Perkin Elmer).
(§2) To determine whether the strong efficacy of the antibodies of the invention also holds true in other cell lines than HT-29, the capacity to induce Caspase 3/7 by anti-TWEAKR antibodies as compared to recombinant human TWEAK was evaluated in a panel of cell lines. For this analysis the following conditions were used: WiDr cells were plated at 3000 cells/well and incubated for 48 h in the presence of TWEAK or the described antibodies, A253 cells were plated at 2500 cells/well and incubated for 24 h, NCI-H322 cells were plated at 5000 cells/well and incubated for 48 h and 786-O cells were plated at 2500 cells/well and incubated for 48 h. The cells were plated in the media as described in Table 21, for A253, NCI-H322 and 786-O cells 100 ng/ml IFN gamma (R&D Systems #285-IF) was added. 24 h after plating antibodies at 100 μg/ml or TWEAK at 300 ng/ml (100 ng/ml TWEAK for NCI-H322 cells) were added and the cells were further incubated for the time periods indicated above. At the end of the incubation time Caspase 3/7 activity was determined as described for HT-29 cells. The fold induction of Caspase 3/7 was calculated as compared to untreated cells.

WiDr cells = assay: Caspase 3/7 activation; type: cell-based, human; settings: 100 μg/ml antibody or 300 ng/ml TWEAK, 48 h
Protocol: as §1, §2

786-O cells [1] = assay: Caspase 3/7 activation; type: cell-based, human; settings: 100 μg/ml antibody or 300 ng/ml TWEAK, 48 h, IFN gamma
Protocol: as §1, §2

A253 cells [2] = assay: Caspase 3/7 activation; type: cell-based, human; settings: 100 μg/ml antibody or 300 ng/ml TWEAK, 24 h, IFN gamma
Protocol: as §1, §2

NCI-H1975 cells = assay: Inhibition of proliferation (Cell Titer Glo); type: cell-based, human; settings: 72h, 100 μg/ml antibody or *100 ng/ml TWEAK
Protocol: (§3) Therefore cells were plated in 96well plates in 750 assay medium (growth media from Table 21, plus 100 ng/ml IFN gamma for 786-O cells) at the following cell numbers: WiDr cells 3000 cells/well, 786-O cells 2500 cells/well. 24 h later cells were incubated with anti-TWEAKR antibodies (see Table 26), recombinant human TWEAK or isotype control IgG (not shown) at the indicated concentrations (antibodies from 0.03-300 μg/ml, TWEAK 100 or 300 ng/ml). At the time of antibody addition cell viability was determined in sister plates (time point zero): therefore 750/well CTG solution (Promega Cell Titer Glo solution (catalog # G755B and G756B) was added to the cells, incubated for 10 minutes and luminescence was read on a Victor V (Perkin Elmer). 96 h after incubation with the agents, cell viability was determined in the assay plates by addition of 100 μl/well CTG solution, 10 min incubation and reading of luminescence. Proliferation in control wells was calculated by subtracting time zero values from the luminescence values in the untreated control wells. % of cell proliferation was calculated in the compound treated wells as compared to the untreated control wells.
(§4) To evaluate, whether this strong anti-proliferative activity can also be observed in a broader cell panel, in addition LOVO, NCI-H1975, SW-480 (all 3000 cells/well), HT-29 (4000 cells/well), A253 and SK-OV3 (both 2500 cells/well) cells were incubated with 100 μg/ml anti-TWEAKR antibodies or TWEAK ligand for the time periods as indicated in Table 27. All cells were seeded in the growth media indicated in Table 21 and for all cells except for WiDr cells 100 ng/ml IFNgamma was added to the assay medium when seeding the cells. The percentage of growth inhibition for treated cells as compared to proliferation in untreated control cells was measured and calculated as described above. As shown in Table 27 the antibodies of the current invention are more efficacious as compared to other known antibodies in inhibiting proliferation of various cancer cell lines at 100 μg/ml. In most experiments the antibodies of the current invention also show equal or stronger efficacy as compared to 100-300 ng/ml TWEAK ligand. Thus, the antibodies described in this invention are unique in their activity to induce apoptosis and proliferation inhibition in a broad panel of cancer cell lines.

HT-29 cells [3] = assay: Inhibition of proliferation (Cell Titer Glo); type: cell-based, human; settings: 24h, 100 μg/ml antibody or **300 ng/ml TWEAK
Protocol: as §3, §4

Lovo cells = assay: Inhibition of proliferation (Cell Titer Glo); type: cell-based, human; settings: 72h, 100 μg/ml antibody or *100 ng/ml TWEAK
Protocol: as §3, §4

SW480 cells = assay: Inhibition of proliferation (Cell Titer Glo); type: cell-based, human; settings: 72h, 100 μg/ml antibody or *100 ng/ml TWEAK
Protocol: as §3, §4

786-O cells [4] = assay: Inhibition of proliferation (Cell Titer Glo); type: cell-based, human; settings: 96h, 100 μg/ml antibody or *100 ng/ml TWEAK
Protocol: as §3, §4

A253 cells [5] = assay: Inhibition of proliferation (Cell Titer Glo); type: cell-based, human; settings: 72h, 100 μg/ml antibody or **300 ng/ml TWEAK
Protocol: as §3, §4

HT-29 cells [6] = assay: Caspase 3/7 activation; type: cell-based, human; settings: 100 μg/ml antibody or 300 ng/ml TWEAK, 24 h, IFN gamma
Protocol: as §1

TWEAKR = TWEAKR (Homo sapiens, UniProt Q9NP84); settings: published data; read-out: KD / binding affinity to TWEAKR (published); cited from earlier work

B1: TWEAK: endogenous TWEAKR ligand; E. coli derived recombinant soluble human TWEAK, Arg93-His249 (R&D #1090-TW-025/CF) (protein, UniProt O43508 93-249, looked up, fragment)
chain: RSAPKGRKTRARRAIAAHYEVHPRPGQDGAQAGVDGTVSGWEEARINSSSPLRYNRQIGEFIVTRAGLYYLYCQVHFDEGKAVYLKLDLLVDGVLALRCLEEFSATAASSLGPQLRLCQVSGLLALRPGSSLRIRTLPWAHLKAAPFLTYFGLFQVH
- Fold induction of Caspase 3/7 (NCI-H322 cells): 1.39 ± 0.01
- Fold induction of Caspase 3/7 (WiDr cells): 1.22 ± 0.02
- Fold induction of Caspase 3/7 (786-O cells [1]): 1.45 ± 0.05
- Fold induction of Caspase 3/7 (A253 cells [2]): 1.53 ± 0.13
- % Inhibition of proliferation (NCI-H1975 cells): 56%*
- % Inhibition of proliferation (HT-29 cells [3]): 98%**
- % Inhibition of proliferation (Lovo cells): 53%*
- % Inhibition of proliferation (SW480 cells): 0%*
- % Inhibition of proliferation (786-O cells [4]): 12%*
- % Inhibition of proliferation (A253 cells [5]): >100%**
- Fold induction of Caspase 3/7 (HT-29 cells [6]): 2.31 ± 0.29
- Kd (TWEAKR): 0.8 to 2.4 nM
